Reference: the RNAGym collection of RNA variant scans (doi:10.1073/pnas.2313332121)

B1: TPR t1 (parent)
chain: GACCAAUCUGCCCUCAGAGCUCGAGAACAUCUUCGGAUGCAGAGGAGGCAGGCUUCGGUGGCGCGAUAGCGCCAACGUCCUCAACCUCCAAUGCAUCCCACCACAUGAUGAUGCCUGAAGAGCCUUGGUUUUUUG

Variants of: B1
Assay: polymerase ribozyme fitness, log enrichment relative to wild type (log ratio); higher = more active; in vitro selection for triplet polymerase activity
Summary of the method: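 Mutant libraries of each subunit of a heterodimeric triplet polymerase ribozyme were built by PCR and transcribed. Each library went through one round of in vitro selection in triplicate: annealing with biotinylated primer, partner subunit and triplets, frozen incubation at −7 °C, gel excision of extended constructs, streptavidin-bead capture and RT-PCR. Input and output libraries were Illumina-sequenced; only genotypes with ≥10 input reads and ≥1 read per output were kept. Fitness is log2(genotype enrichment/wild-type enrichment), using inverse-variance-weighted replicate averages.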

Variant | polymerase ribozyme fitness (log ratio)
GACCAAUCUGCCCUCAGAGCACGAGAAGAUCUUCGGAUGCAGAGGAGGCAGGCUUCAGGGGCGCGAUAGCGCCAACGUCCUCAACCUCCAAUGCAUCCCACCACAUGAUGAUGCCUGAAGAGCUUUGGUAUUUUG [U21A C28G G57A U59G C124U U130A] | -3.45
GACCAAUUUGCCCUCAGAGCUCGAGAACAUCUUCGGAUGCAGAGGAGGCAGGCUUCGGUGGCGCGAUAGCGCCAACGUCCUCAACCCCCAAUGCAUCCCACUACAUGAUGAAGCCUGAAGAACCUUGGUUUUUUG [C8U U87C C102U U112A G122A] | -0.31
GACCAAUCUGCCCUCAGAGCUCGAGAACAUCUUCGGAUGCAGAGGAGGCAGGCUUGGGUGGCGCGAUAGCGCCAACGUCCUCAACCUCCAAUGCAUCCCACCACAAGAUGAUGCCUGAAGAGCCUUGGUUUUUUG [C56G U106A] | -0.921
GACCAAUCUGCCCUCAGAGCUCGAGAACAUCUUCGGAUGCAGAGAAGGCAGGCUUCGGUGGCGCGAUAGCGCCAACGUCCUCAACCUCCAAUGCAUCCCACCACAUGAUGAUGCCUGAAGAGCCUUGGUAUUUUG [G45A U130A] | -1.49
GACCAAUCUGCCCUCAGAGCUCGAGAACAUCUUCGGAUGCAGAGGAGGUAGGCUUCGGUGGCGCGAUAUCGCCAACGUCAUCAACCUCCAAUGCAUCCCACCACAUGAUGAUGCCUGAAGAGCCUUGGUUUUUUG [C49U G69U C80A] | -3.24
GACCAAUCUGCCCUCAGAGCUCGAGAACAUCUUCGGAUGCAGAGGAGGCAGGCUUCGGUGGCGCGUUAGCGCCAACCUCCUUAACCUCCAAUGCAUCCCACCACAUGAUGAUGCCUGAAGAGCCUUGCUUUUUUG [A66U G77C C82U G128C] | -4.12
GACCAAUCUGCCCUCAGAGCUCGAGAGCAUCUUCGGAUGCAGAGGCGGCUGGCUUCGGUGGCGCGAUAGCGCCAACGUCCUCAACCUCCAAUGCAUCCCACCACAUGAUGAUGCCUGAAGAGCCUUGGUUUUUUG [A27G A46C A50U] | -4.64
GAACAAUCUGCCCUCAGAGCUCGAGAACAUCUUCGGAUGCAGAGGAGGCAGGCUUCGGUGGUGCGAUAGCGCCAACGUCCUCAACCUCCAAUCCAUCCCACCACAUGAUGAUGCCUGAAGAGCCUUGGUUUUUUG [C3A C62U G93C] | -2.92
GACCAAUCUGCCCUAAGAGUUCGAGAACAUCUUCGGAUGCAGAGGAGACAGGCUUCGGUGGCGCGAUAGCGCCAACGUCCUCAACCUCCAUUGCAUCCCACCACAUGAUGAUGCCUGAAGAGCCUUGGUUUUUUG [C15A C20U G48A A91U] | -4.59
GACCAAUCUGCCGUCAGAGCUCGAGAACAUCCUCGGAUGCAGAGGAGGCAGGCUUCGGUGGCGCGAUAGCGCCAACGCCCUCAACCUCCAAUGCAUCCCACCACAUGAUGAUGCCUGAAGAGCCUUGGUUUUUUG [C13G U32C U78C] | -2.51
GACCAAUCUGCCCUCAGAGCUCGAGAACAUCUUCGGAUGCAGAGGAGACAGGCUUCGGUGGCGCGAUAGCGUCAACGUCCCCAACCUCCAAUGCAUCCCACAACAUGAUGAUGCCUGAAGCGCCUUGGUUUUUUG [G48A C72U U81C C102A A121C] | -0.882
GACCAAUCUGCUCUAAGAGCUCGAGAACAUCUUCGGCUGCAGAGGAGGCAGUCUUCGGUGGCGCGAUAGCGCCAACGUCCUCAACCUCCAAUGCAUCCCACCACAUGAUGAUGCCGGAAGAGCCUUGGUUUUUUG [C12U C15A A37C G52U U116G] | -3.09
GACCAAUCUGCCCUCAGAGCUCGAGAACAUCUUCGGAUGCAGAGGAGGCAGUCUUCGGUGGCGCGAUAGCGCCAACGUCCUCAACCUUCAAUGCAUCACACCACAUGAUGAUGCCUGAAUAGCCUUGGUUUUUUG [G52U C88U C98A G120U] | -5.88
GACCAAUCUGCCCUCAGAGCUCGAGAACAUCUUCGGAUGCAGAGGAAGCAGGCUUCGGUGGCGCGAUAGCGCCAACGUCCUCACCCUCCAAUGCAUCCCACCACAUGAUGAUGCCUGAAGCGCCUUGGUUUUUUG [G47A A84C A121C] | 0.928
GACCAAUCUGCGCUCAGAGCUCGAGAACAUCUUCGGAUUCAGAGGAGGCAGGCUUCGGUGACGCGAUAGCGCCAACGUCCUCAACCUCCAAUGCAUCCCACCACACGAUGAUGCCUGAAGAGCCUUCGUUUUUUG [C12G G39U G61A U106C G127C] | -2.63
GACCAAUCUGCCUUGAGUGCUCGAGAACAUCUUCGGAUGCAGAGGAGGCAGGCUUCGGUGGCGCGUUAGCGCCAACGUCCUCAACCUCCAAUGCAUCCCACCACAUGAUGAUGCCUGAAGAGCCUUGGUUUUUUG [C13U C15G A18U A66U] | -5.7
GACCAAUCUGCCCUCAGAGCACGAGAACAUCUUCGGAUGCAGAGGGGGCAGGCUUCGGUGGCGCGAUAGCGCCAACGUCCUCAACCUCCAAUGCAUCCCACCACAUGAUGAUGCCUGAAGAGCCUUGCUUUUUUC [U21A A46G G128C G135C] | -0.459
GACCAAUGUGCCCUCAGAGCUCGAGAACAUCUUCGGAUGCAGAGGAGGCAGCCUUCGGUGGUGCGAUAGCGCCAACGUCCUCAACCUCUAAUGCAUCCCACCACAUGAUGAUGCCUGAAGAGCCUUGGUUUUUUG [C8G G52C C62U C89U] | -1.08
GACCUAUCUGCCCUCAGAGCUCGAGAACAUCUUCGGAUGUAGAGGAGACAGGCUUCGGUGGCGCGAUAGCGCCAACGUCCUCAACCUCCAAUGCAUCCCACCACAUGAUGAUGCCUGAAGAGCCUUGGUUUUUUG [A5U C40U G48A] | -2.13
GACCAAUCUGCCCUCAGAGCUCGAGAACAUCUUCGGAUGCAGAGGAGGCAGGCUUCGGUGGCGCGAUAGCGCCAACGUCCUCAACCCCCGAUGUAUCCCACCACAUGAUGAUGCCUGAAGAGCCUUGGUUUUUUG [U87C A90G C94U] | 0.339
GACCAAUGUGCCCUCAGAGCUCGAGAACAUCUUCGGAUGCAGAGGAGGCAGGCUUCGGUGGCGCGAUAGCGCCAACGCCCUCAACCUCCAAUGCAUCCCACCACCUGAUGAUGCCUGAAGAGCCUUGGUUUUUUG [C8G U78C A105C] | -2.32

Variant | polymerase ribozyme fitness (log ratio)
GACCAAUCGGCCCUCAGAGCUCGAGAACAUCUUCGGAUGCAUAGGAGGCAGGCUACGGUGGCGCGAUAGCGCCAACGUCCUCAACCUCCAAUGCAUCCCACCACAUGAUGAUGCCUGAAGAGCCUUGGUUUUUUG [U9G G42U U55A] | -1.32
GACCAAUCAGCCCUCAGAGCUCGAGAACAUGUUCGGAUGCAGAGGAGGCAGGCUUCGGUGGCGCGAUAGCGCGAACGUCCUCAAACUCCAAUGCAUCCCACCACAUGACGAUGCCUGAAGAGCCUUGGUUUUUUG [U9A C31G C73G C85A U109C] | -5.57
GACCAAUCUGCCCUCAGAGCUCGAGAACAUCUUCGGAUGCAGAGGAGGCAAGCUUCGGUGGCGUGAUAGCGCCAACGUCCUCAACCUCCAAUGCAUCCCACCACGUGAUGAUGCGUGAAGAGCCUUGGUUUUUUG [G51A C64U A105G C115G] | -8.49
GGCCAAUCUGACCUCAGAGCUCGAGAACAUCUUCGGAUGCAGAGGAGGGAGGCUUCGGUGGCGCGAUAGCUCCAACGUCCUCAAACUCCAACGCAUCCCACCACAUGAUGAUGCCUGAAGAGCCUUGGUUUUUUG [A2G C11A C49G G71U C85A U92C] | -2.64
GACCAAUCUGCCCUCAGAGCUCGAGAACAUCUUCGGAUGCAUAGGAGGCAGGCUUCGGUGGCGCGAUAGCGCUAACGUCCUCAACCUCCAAUGCAUCCCACCACAUGAUGAUGCCUGAAGAGCCUUGGUUUUUUG [G42U C73U] | -1.51
GACCAAUCUGCUCUCAGAGCUCGAGAACAUCUUCGGAUGCAGAGGAGGCAGGAUUCGCUGGCGCGAUAGCGCCAACGUCCUCAACCUCCAAUGCAUCCCACCACAUGAUGAUGCCUGAUGAGCCUUGGUUUUUUG [C12U C53A G58C A119U] | -0.505
GACCAAUCUGCCCUCAGAGCUCGAGAACAUCUUCGGAUGGAGAGGAGGCAGGCUUCGGUGGCGCGAUAGCGCCAACGUCCUCAACCUCCAAUGCAUCCCACCACAUGAUGAUACCUGAAGACCCUUGGUUUUUUG [C40G G113A G122C] | -1.81
GACCAAGCUGCCCUCAGAGCUCGAGAACAUCUUCGGAUGUCGAGGAGGCAGGCUUCGGUGGCGCGAUAGCUCCAACGUCCUCAACCUCCAAUGCAUCCCACCACAUGAUGAUACCUGAAGAGCCUUGGUUUUUUG [U7G C40U A41C G71U G113A] | -2.26
GACCAAUCUGCCCUCAGAGCUCGAGAACAUCUUCGGAUGCAGAGGAGGCAGGCUUCGGUGGCGCGAUAGUUCCAACGUCCUCAACCUCCAAUGCAUCCCACCACAUGAUGAUGCCUGAAGAGCCUUGGUUUUUUG [C70U G71U] | -0.437
GACCAGUCUGCGCUCAGAGCUCGAGAACAUCUUCGGAUGCAGAGGUGGCUGGCUUUGGUGGCGCGAUAGCGCAAACGUCCUCAACCUCCAAUGCAUCCCACCACAUGAUGAUGCCUGAAGAGCCUUGGUUUUUUG [A6G C12G A46U A50U C56U C73A] | -2.15
GACCAAUCUGCCCUCAGAGCUCGAGAACAUCUUCGGAUGCAGAGGAGGUAGGCUUCGGUGGCGCGAUAGCACCAACGUCCUCAACCUCCAAUGCAUCCCACCACAUGAUGAUGCCUGAAGAGCCUUGGUUUUUUG [C49U G71A] | -1.46
GACCAAUCCGCCCUCAGAGCUCGAGAACAUCUUCGGAUGCAGAGGAGGCAGGCUUCGGUUGUGCGAUAGCGCCAACGGCAUCAACCUCCAAUGCAUCCCACCACAUGAUGACGCCUGAAGAGCCUUGGUUUUUUG [U9C G60U C62U U78G C80A U112C] | -1.95
GACCAAUCUCACCUCAGAGCUCGAGAACAUCUUCGGAUGCAGAGGAGGCAGGCUUCGGUGGCGCGAUAGCGCCAACGUCCUCAACCUCCAAUGCAUCCCACCACAUGAUGAUGCCUGAAGAGCCUUGGUUUUUUG [G10C C11A] | -1.06
GACCAACGUGCCCUCAGAGCUCGAGAACAUCUUCGGAUGCAGAGGAGGCAGGCUUCGGUGGCGCGAUAGCGCCAACGUCCUCAACCUCCAAUGCAUCCCACCACAUGAUGAUGCCUGAAGAGCCUUGGUUUUUUG [U7C C8G] | -0.253
GAUCAAUCUGCUCUCAGAGCUCGAGAACAUCUUCGGAUGCAGAGGAGGCAGGCUUCGGUGGCGCGAUAGCGCCAACGUCCUCAACCUCGAAUGCAUCCCACCACAUGAUGAUGCCUGAAGAGCCUUGGUUUUUUG [C3U C12U C89G] | -1.64
GACCAAUCUGCCCUCAGAGCUCGAGAACAUCUUCGGAUGCAGAGGUGGCAGGCUUCGGUGGCGCGAUAGCGCUAACGUCCUCAACCUCCCAUGCAUCCCACCACAUGAUGAUGCCUGAAGAGCCUUGGUUUUAUG [A46U C73U A90C U133A] | -1.35
GACCAAUCUGCCCUCAGAGCUCGAGAAUAUCUUCGGAUGCAGAGGAGGCAGGCUUCGGUGGCGCGAUAGCGCCAACGUCCUCAACCACCAAUGCAUCCCACCACAUGAUGAUGCCUGAAGAGCCUUGGUUUUUUG [C28U U87A] | -2.17
GACCAAUCUGCCCUCACAGCUCGAGAACAUCUUCGGAUGCAGAGGAGGAAGGCUUCGGUGGCGCGAUAGCGCCAACGUCCUUAACCUCCAAUGCAUCCCACCACAUGAUGAUGUCUGAAGAGCCUUGGUUUUUUG [G17C C49A C82U C114U] | -5.49
GACCAAUCUGCCCUCAGAGCUCGAGAACAUCUUCGGAUGCAGUGGAGGCAGGCUUGGGUGGCGCGAUAGCGCCAACGUCCUCAACCUCCAAUGCAUCCCACCACAUGAUGAUGCCUGAAGAGCCUUGGUUUUUUG [A43U C56G] | -1.4
GACCAAUCUGCCCUCAGAGCUCGAGAACAUCUUCGGAUGCAGAGGAGUCAGGCUUCGGUGGCGCGAUAGCGCCAACGUCCUCACCCUCCAAUGCAUCCCACCACAUGAUGAUGCAUGAAGAGCCUUGGUUUUUUG [G48U A84C C115A] | -1.64
GACCAAUCUGCCCUCAAAGCUCGAGAACAUCUUCGGAUGCAGAGGAGGCAGGCUUCGGUGACGCGAUAGCGCCAACGUCCUCAACCUCCAAUGCAUCCCACCACAUGAUGAUGCCUGAAGAGCUUUGGUUUUUUG [G17A G61A C124U] | -2.13
